Columns and labels:
[1] = system: frozen tissues from human, Rhesus monkey, and Sprague-Dawley rat; test: Tissue cross-reactivity study; assay type: binding; details: AB-16B5 staining at 2 and 10 μg/mL
Procedure: In addition, a tissue cross-reactivity study was conducted to determine the potential cross-reactivity of AB-16B5 with frozen tissues from human, Rhesus monkey, and Sprague-Dawley rat tissues.

[2] = system: tumor biopsies; test: Human tumor biopsies of patients treated with AB-16B5 as single agent (H&E); assay type: in vivo; details: after the second cycle
Procedure: In parallel human tumor biopsies of patients treated with AB-16B5 as single agent were analyzed (FIGS. 2B-2E). Needle biopsies obtained from a patient with metastatic thyroid cancer and form a patient with inoperable metastatic gastric cancer were sectioned and stained with hematoxylin and eosin. An on-treatment biopsy from a patient with thyroid cancer metastasic to the lungs was obtained after the second cycle treatment with AB-16B5. […] Hemosiderin-laden macrophages were observed inside necrotic areas some reflecting red blood cell extravasation associated with necrosis (not shown). […] On display one finds.

[3] = Phase I: detection of AB-16B5 in tumor biopsies; assay type: in vivo, human; details: for Detection of AB-16B5 in Tumor Biopsies, Post-Treatment Biopsy: 12.0 mg/kg, after dosing on Cycle 2 Day 15
Excerpt: Tumor biopsies were collected during the standard dose escalation to investigate the presence of AB-16B5 within the tumor. A total of 4 pre-treatment and 5 post-treatment tumor biopsies were suitable for analysis. These post-treatment tumor biopsies were collected following dosing on Cycle 2 Day 15 (between Cycle 2 Day 15 and Cycle 2 Day 18). The biopsy sites were liver (n=2), lymph node (n=2), bladder, skin and vulva.

Substance: AB-16B5: humanized IgG2 monoclonal antibody targeting sCLU; light chain SEQ ID NO:11, heavy chain SEQ ID NO:12
- membrane staining in tissue panels [1]: no membrane staining was observed
- immune infiltrate, on-treatment biopsy ([2]; patient with inoperable metastatic gastric cancer, small fragments): infiltrated by a mix neutrophilic and mononucleated immune cells infiltrate
- immune infiltrate, on-treatment biopsy ([2]; patient with thyroid cancer metastatic to the lungs, edge of fragment): lymphoplasmacytic infiltrate was observed
- necrosis of tumor fragments, on-treatment biopsy ([2]; patient with thyroid cancer metastatic to the lungs, single agent): essentially all tumor fragments were necrotic
- presence of AB-16B5 in all pre-treatment tumor biopsies ([3]; 4 pre-treatment biopsies, baseline): negative
- presence of AB-16B5 in all post-treatment tumor biopsies analyzed ([3]; 5 post-treatment biopsies): confirmed
- Detection of AB-16B5 in Tumor Biopsies, Post-Treatment Biopsy ([3]; Subject 009, Lung, biopsy site Liver): Positive
- Detection of AB-16B5 in Tumor Biopsies, Post-Treatment Biopsy ([3]; Subject 010, Colorectal, biopsy site Liver): Positive
- Detection of AB-16B5 in Tumor Biopsies, Pre-Treatment Biopsy ([3]; Subject 011, Colorectal, biopsy site Lymph node, baseline): Negative
- Detection of AB-16B5 in Tumor Biopsies, Post-Treatment Biopsy ([3]; Subject 012, Breast, biopsy site Skin): Positive
- Detection of AB-16B5 in Tumor Biopsies, Pre-Treatment Biopsy ([3]; Subject 012, Breast, biopsy site Skin, baseline): Negative
- Detection of AB-16B5 in Tumor Biopsies, Post-Treatment Biopsy ([3]; Subject 013, Prostate, biopsy site Bladder): Positive
- Detection of AB-16B5 in Tumor Biopsies, Pre-Treatment Biopsy ([3]; Subject 014, Vulvar melanoma, biopsy site Vulva, baseline): Negative
- Detection of AB-16B5 in Tumor Biopsies, Post-Treatment Biopsy ([3]; Subject 015, Ovarian, biopsy site Lymph node): Positive
- Detection of AB-16B5 in Tumor Biopsies, Pre-Treatment Biopsy ([3]; Subject 015, Ovarian, biopsy site Lymph node, baseline): Negative

Reference: US20240317884A1, “METHOD FOR ALLOWING IMMUNE CELLS INFILTRATION IN TUMORS” (Alethia Biotherapeutics Inc., priority 2021, published 2024)
